B1: monovalent VHH BL2.1 (VHH)
VHH: QVQLQQSGGGLVQAGGSLRLSCAASGFTFDDYAIGWFRQAPGKEREGISSIVGSDNYTWYTDSVKGRFTISSDNTRSTVYLQMNSLKPEDTAVYYCAADSYSDYVSLNPETFGSWGQGTQVTVSS
notes: also called LT109; non-N-glycosylated BL2.1; source: E. coli BL21 (DE3), periplasmic extract, purified (IMAC, cation exchange)
B2: BL2.1 (monovalent VHH) (VHH)
VHH: QVQLQQSGGGLVQAGGSLRLSCAASGFTFDDYAIGWFRQAPGKEREGISSIVGSDNYTWYTDSVKGRFTISSDNTRSTVYLQMNSLKPEDTAVYYCAADSYSDYVSLNPETFGSWGQGTQVTVSS
notes: also called LT109; VHH BL2.1; source: E. coli BL21 (DE3), periplasmic extract, purified (IMAC, cation exchange)

Tests used:
Conditions in all cases: both partners purified
[1] = biological target: T1, heat-labile enterotoxin B-subunit pentamer (LTB-6HIS-3FLAG) (Escherichia coli (ETEC), human-type …, UniProt P0CK94, biotin (NHS-PEG4-Biotin) in the DELFIA experiments only); experiment: SPR; Biacore 8K+; […] (1–300 nM); single-cycle kinetics, HBS-EP+, 30 µl min^−1, 25 °C; global 1:1 model; […]
[2] = biological target: T1, heat-labile enterotoxin B-subunit …; experiment: BLI; Octet RED96; […] (76 nM) […] (120–0.470 nM); […]
[3] = biological target: T1, heat-labile enterotoxin B-subunit …; experiment: SPR; Biacore 8K+; […] (1–300 nM); single-cycle kinetics, HBS-EP+, 30 µl min^−1, 25 °C; global 1:1 model
[4] = biological target: T2, cholera toxin holotoxin (AB5) (Vibrio cholerae; strain/ctxB genotype …, UniProt P01555;P01556); experiment: SEC
T2 construct: source: Vibrio natriegens, from culture medium, purified (D-galactose column, SEC); copies: 1 + 5
T2 sequence (P01556 22-124, looked up, chain 1 of 2): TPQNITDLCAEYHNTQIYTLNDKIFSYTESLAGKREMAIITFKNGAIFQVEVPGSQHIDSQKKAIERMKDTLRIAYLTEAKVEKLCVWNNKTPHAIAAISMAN
T2 sequence (P01555 whole entry, looked up, chain 2 of 2): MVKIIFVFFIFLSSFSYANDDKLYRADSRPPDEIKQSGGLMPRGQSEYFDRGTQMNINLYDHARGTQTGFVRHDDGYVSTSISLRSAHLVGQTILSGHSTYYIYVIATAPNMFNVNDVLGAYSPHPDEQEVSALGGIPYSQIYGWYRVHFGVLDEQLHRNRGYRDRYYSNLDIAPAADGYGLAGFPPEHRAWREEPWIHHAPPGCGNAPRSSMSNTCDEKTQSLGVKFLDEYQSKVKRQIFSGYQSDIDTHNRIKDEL

[5] = biological target: T3, cholera toxin B-subunit pentamer (Vibrio cholerae; ctxB genotype of …, UniProt P01556); experiment: BLI
T3 construct: source: bought: Sigma-Aldrich (C9903)

[6] = biological target: T4, LTB pentamer (receptor-binding B-subunit of heat-labile enterotoxin), LTB-6HIS-3FLAG (Escherichia coli (ETEC), human-type …, UniProt P0CK94); experiment: BLI; Octet RED96; […] (76 nM) […] (120-0.470 nM); global 1:1 ([…]) fit; […]
T4 construct: source: E. coli BL21 (DE3), periplasmic extract, purified (IMAC)

[7] = biological target: T5, CTXB pentamer (receptor-binding B-subunit of cholera toxin) (Vibrio cholerae; ctxB genotype of …, UniProt P01556); experiment: as above
T5 construct: source: bought: Sigma-Aldrich (C9903)

[8] = biological target: T4, LTB pentamer (receptor-binding …); experiment: SPR; Biacore 8K+; […] (5 µg/ml) […] (1-300 nM), single-cycle kinetics, HBS-EP+, 30 µl/min, 25 °C; global 1:1 fit; […]
[9] = biological target: T5, CTXB pentamer (receptor-binding …); experiment: as above
[10] = biological target: T4, LTB pentamer (receptor-binding …); experiment: SPR; Biacore 8K+; […] (1 µg/ml) […] (1-300 nM), single-cycle kinetics, HBS-EP+, 30 µl/min, 25 °C; global 1:1 fit; […]
[11] = biological target: T5, CTXB pentamer (receptor-binding …); experiment: as above

Binder	Kd [1]	Kd [2]	Kd [3]	binding result [4]	Kd [5]	koff [6]	kon [6]	koff [7]	kon [7]	koff [8]	kon [8]	koff [9]	kon [9]	koff [10]	kon [10]	koff [11]	kon [11]
B1	3 pM	< 1 pM	260 pM	binds	330 pM												
B2						< 1e-07 s⁻¹	69700 M⁻¹ s⁻¹	3.53e-05 s⁻¹	108000 M⁻¹ s⁻¹	0.000182 s⁻¹	696000 M⁻¹ s⁻¹	0.00179 s⁻¹	218000 M⁻¹ s⁻¹	2.48e-05 s⁻¹	7.93e+06 M⁻¹ s⁻¹	0.000212 s⁻¹	557000 M⁻¹ s⁻¹

From paper PMC12754688 (Gut Microbes, 2025)
